Source: a protein production outcome set (Wang et al. 2014)

Assay: label from the status in PepcDB records
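Also: failed if final PepcDB status was selected cloned or expressed and not failed if soluble or beyond.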

Sequence | protein production
MSIGLSLTFGLYLLVLVGIGVYFFLRTETRRLTDYMLAGRDVGTWPLALSEVASVASGWTFFAWVGVGFTTGLHGLWFSMAMLVVVLFLYRYVAPTFRRQSEALDSQTVVDHLALVFRDSPWGPRIRWTATLAVVVFMASYIGAQIIAVGEAMETGLGLNYAVSVGAGGLAVALYTTLGGFDASVWTDFVQGLLVILAALALPLVAIAEIGGWGAFVTAVRAADPTLLSMTAGQTGTALALSVGSWLAFALGALGQPHGLMRFQAIRSERLLSRASVIALAFQALRLTVPLFIGMAGRVLYGSMNDPESAAMEMMVQLFPDWFAGLLLAGIIGAVLSTSDSMMLVTSADLTRLYETQLAGGVLPARMIRLGRGIVGVMALLGVGLAYWRPGTIFDIIEFAFVGLGATLGLPLAFLVLWPRTTGAGVFAAVAAGLGSAVGNLYLSPATFPILVWPITLTAFLGASYATAPSSPVTASSS | failed
PTRQVLQGSRCRLEPLTLAHASDLFAAHQLAPDARSWTWLLREPESNLAEFSAWVEQVATLADPIHFAVVDQQRGKAVGSLALMRIDIAHGVVEVGHVHFSPLLSRTAMATEAHWLLMQYVFDTLGYRRYEWKCNSLNIPSARAARRLGFQYEGRFRQALVSKGHNRDTDWFSVIDGEWPELD | failed
MVSRRGVAGLDFDNRVRSLINTFGLVSVHVQCYFIISDLCLRDSSHQGIFLVSVTRSGCLMVHDFESLYCQSKLGPGSAEDESKHVVHFSYPPGREFDVARWNPSNQNEVACTSRKHDQVLIFDISYMSPKPTEVLQTRQKLSIIGRKISRGLSDVAITSDEDSRIFSPDTLGMVHVWDRRAGVSPCIELSTDRYDSIKSIQIYVDNQTIFGAGKEGIIHIWDLRGGRNSSAFQSRKDVSLTRGELELAMAMSQLPLASLHLAPKLQKIASLKAQSEIVPKEIHSIDVNPSSPHQLAFHLDDGWSGVLDIYKSEVTHVHCPPPAWLDGSNSSADLILRKPSWLPTSSIYVVGSMSEKGIHVLDFHPSSRSPCHVDYDEDTQRNEKRDKCNHRNKFVSLSETVTGCAAHPLNGMIVAGTQNSSLLLIAQMHCSSSSETAEGEL | failed
MADIQGEDLESLYGYAKQLFDGGEIAAARNVYQLLSTLDHWNFDYLLALGLCHQRLGAHNEAVVCFGRAGLIKVDDPRAAFYAGISYRLDGNAEYASKAFKAAINWCGEQIDYQAIKASAVDMLALQQEEVPLEHHHHHH | not failed
MPHGVEVEPGVAKLTTYASKQATDMGAIYVNSKGDRIVNESNVYTTFRNAILKQADKVAYLVMDERTWKKVYDLLILHDFTPEEIKSFFENKGKRPVFVKGSLESAAEQAGIVVDELVQTVKNYQGYVQDGHDHDFGRDPKYLHQFEGETFYIIEQRLEHHHHHH | not failed
MPAPHPDSSVAPTTRLIAERALAAVFQPIVDLGSGTVVGYEGLIRGPRGTDLEPPAALFAQAARDGTTIALEQAAALACLDAFAALGCDGKLFLNFSAGTIVQLVRERERARQLLGRAGVGAERIVIELTEQTAMPDVARIEPAVASLRDAGIQFALDDYGTANASMNLWLRLHPDVVKIDRFFIHDIARDPLKFEAVRAMQHFAHASGAQLIAEGIENASDLIVVRDMGICCVQGFLLGRPNARPSPVVAPAARDAIRTPHIAVFPGAMRTARPAGTIAAKMLVPAPALPRDATSNDVLDLFNRMPGLHAVALVERGRPVALVNRRGFIDRFTLPYHREVFGKKPCLQFANDAPLMIDNATSVEQLAMLLASHDQRYLADGFVITEHGRYLGLGTGESLVRAVTEMRIEAARYANPLTFLPGNIPISAHIDRLLERDAGFHACYVDLNQFKPFNDQYGYWQGDEVLKFAATVLAGVCDPQRDFLGHVGGDDFLVLFQRDDWRARATDAIARFNDGAQRFYTQADRLAGGLRGEDRHGNPAFFGFVTMAIGAVGVPAGAHGAMRYGSDEIASVAALAKRRAKQQPGGLAVVDLDAGRAALRERGEPPLAAAG | failed
MPDLMHSELTMSGPEQSLLAGALLGAGLPADAHRHLELAGRDYQSEALAEQHLREAHLLAPDHAAVLIGLYRFYFYKGRLGEALEVAQACLCKAARDNGLASDWRKVRRGDAEFSSYSAVLPRFYLFALKAYAYLQMRLGQLDEGHAAVEKLLELDPTDKVGAAVLLDVWRRIGLEHHHHHH | not failed
PTSSTTATLVMGDALAVALLKARGFTAEDFALSHPGGALGRKLLLRVSDIMHTGDEIPHVNKHATLRDALLEITRKNLGMTVICDESMKIDGIFTDGDLRRVFDMGGDMRQLGIAEVMTPGGIRVRPGILAVDALNLMQSRHITSVLVADGDQLLGVLHMHDLLRA | failed
MTETYVLAESPEFYQDNVTDYTGQISSSDITNIQAAIDDVKASEQKVIFVVFLSSFDGVDPETWTQQALQANGGGNVLIYALAPEERQYGIQGGTQWTDAELDAANNAAFQALSQEDWAGSALEHHHHHH | not failed
MKLAKKMILAAAVLPLTLGTTAALAYGGHGWDKEGDGHCGDRGERGIWKQLDLTAEQQAQLKEMREAGREEMRANRGQSHDAMKALHAQERALVLAADFDQAAAENLAKQMVDQQVTHRVKMMEKRHQMMSILTAEQKAKLQTLQQEKMAECMQDGQHGKGKKHASQLEHHHHHH | not failed
MGSSSRQGWRSVFKDVTQKWDVMTVEEQEKELSLLEEWTERVLEEWSDMHEACMTLRERQQQSSVLEKYPPYVSKGTALYDLEMFPEAAMQFDRELKMQPHMHHPLLHLYAIFANLYGGQRERCKEHCVYVLTTSVDRLVRYFTYMALGTLYMQEGEVEEALTSYEHASKLTFHPDVMYNLGMAYFLQHQYALAIPCFMEVIKDGEEDVDALYFLGCALCESGYVEEGCAKWLEAIQLCPPEKVLLTIGAKLEWYGFHQAAVHCFEQLLQSRQLRHLAKHGIAWNLALQDEREKAIHMLKELIAVPQIREDVRLSIEFLAHCWNDGNLRQLAASIERG | failed
PHSMEPQVTLNVTFKNEIQSFLVSDPENTTWADIEAMVKVSFDLNTIQIKYLDEENEEVSINSQGEYEEALKMAVKQGNQLQMQVHEG | not failed
KTIFVIVPTNEEQVAFLEALAKQDELNFDWQNPPTEPGQPVVILIPSDMVEWFLEMLKAKGIPFTVYVEEGGSENLYFQ | not failed
MTRRALFGPKVAPLIQAASLTLALLLFLAACGPKGSYENVGPEELYEALAAGALVVDVRTPGEFAQGHVPGAINLPVEEVARWADRIPKDRPVYLYCRSGNRSRKAAEYLARKGYTNLYNVEGGVLAIARAGYPLVR | failed
MACFSGTVYLVACRFRSRGNSMPYKISQYVLDDATPDDSGIVQGDMDVFIHQLMTLMEASQQGYALFDGNDELRFANSAFRAALGIGRHEFPSWVDMMRSGYRTTTGTSIETSDFELWLRSAKTRRGKLPFRTIETSLKDGRWMLTTETTLPGGWMLCVITDVSELGIELRDLRQERDRALKSALSDELTGLGNRRYAMDTLNHLLGPNKAQALAVIIMDIDHFKSVNDRFGHAYGDLVLKDFAARLSATAGRDDLLGRIGGEEFLLVLSGSRMHSADSLMRQLLSSLAQASPLGDRPDFRYSCSAGIAYANPGESASEVLRHADTALYEAKNTGRNRYVIYATVP | failed
MSSVPRFWRNLGSRYNLEGTRCKECGEYFYPPRNVCVNCRRMGELEPFKFKGTGEIVSYTLIHTGAEGFEGQAPYTLAIIKLDEGPRLTSQVVGNTDNIQIGTRVRSVFRKLGEDGERGMIYYGTKFVPVDALEHHHHHH | not failed
MSQEDITGKDRLQELIGADYRLQWIIGHGGMSTVWLADDVVNDREVAIKVLRPEFSDNQEFLNRFRNEAQAAENIDSEHVVATYDYREVPDPAGHTFCFIVMEFVRGESLADLLEREGRLPEDLALDVMEQAAHGLSVIHRMDMVHRDIKPGNMLITANGIVKITDFGIAKAAAAVPLTRTGMVVGTAQYVSPEQAQGKEVTAASDIYSLGVVGYEMMAGRRPFTGDSSVSVAIAHINQAPPQMPTSISAQTRELIGIALRKDPGRRFPDGNEMALAVSAVRLGKRPPQPRTSAMMAQAEAPSPSESTAMLGRVARPATITQEAAPKRGSGIGIGLFIAALLAVIIGAVIYAGTTGILFNDTPEETTTPETITETYTPTVEETTSQWVPPTPPTRSTFTEPETTSHRPTTSEESTSEEPTTEAPTSSRTVPQIPTSTPRTSASVPVETNAPADDLIDAVNGLLDVGGAQ | failed
